From US20100113339A1 come the findings set out here.

The target of experiment [1] is mouse serum albumin (mouse) (UniProt P07724). Put plainly: SPR Biacore 3000; mouse albumin against human/rhesus albumin as reference.
Experiment [2] concerns the target human serum albumin (human) (UniProt P02768). Put plainly: SPR Biacore 3000, albumin amine-coupled on CM5 chip, nanobody concentration series.
Experiment [3] concerns the target mouse serum albumin (mouse) (UniProt P07724). The experiment is described as above.
Experiment [4] addresses rhesus serum albumin (rhesus) (UniProt Q28522). The experiment is described as above.

pKd: −log10 of the molar value.

A word on the pKd: it is the Kd on a negative log10 scale, so that one unit is a factor of ten. A high value points to a small Kd. Usually koff stands for the rate constant with which the complex falls apart. A word on the kon: it is the second-order rate constant of association. Low values mean slow association, high ones fast association.

mouse serum albumin (mouse), sequence (P07724 25-608 limits assumed): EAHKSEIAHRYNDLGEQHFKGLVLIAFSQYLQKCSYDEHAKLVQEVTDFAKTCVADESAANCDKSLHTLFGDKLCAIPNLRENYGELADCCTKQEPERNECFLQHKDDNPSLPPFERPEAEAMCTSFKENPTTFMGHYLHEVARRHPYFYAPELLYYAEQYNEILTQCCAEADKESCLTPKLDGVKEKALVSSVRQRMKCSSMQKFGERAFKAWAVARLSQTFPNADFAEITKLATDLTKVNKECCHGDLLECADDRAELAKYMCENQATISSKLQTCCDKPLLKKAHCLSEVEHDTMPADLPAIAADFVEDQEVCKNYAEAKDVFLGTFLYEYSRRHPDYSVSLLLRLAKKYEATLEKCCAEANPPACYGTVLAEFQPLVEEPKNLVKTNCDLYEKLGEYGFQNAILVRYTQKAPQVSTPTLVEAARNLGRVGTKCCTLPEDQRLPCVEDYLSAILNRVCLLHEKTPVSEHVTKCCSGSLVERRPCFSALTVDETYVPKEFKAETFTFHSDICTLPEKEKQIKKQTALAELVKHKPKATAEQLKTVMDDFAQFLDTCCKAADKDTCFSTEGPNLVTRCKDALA
PMP6A6 (ALB1) (VHH), sequence (VHH): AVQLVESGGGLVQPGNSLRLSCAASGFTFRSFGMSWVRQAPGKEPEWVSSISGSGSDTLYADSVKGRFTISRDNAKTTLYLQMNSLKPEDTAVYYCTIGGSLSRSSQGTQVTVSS
rhesus serum albumin (rhesus), sequence (Q28522 17-600 limits assumed): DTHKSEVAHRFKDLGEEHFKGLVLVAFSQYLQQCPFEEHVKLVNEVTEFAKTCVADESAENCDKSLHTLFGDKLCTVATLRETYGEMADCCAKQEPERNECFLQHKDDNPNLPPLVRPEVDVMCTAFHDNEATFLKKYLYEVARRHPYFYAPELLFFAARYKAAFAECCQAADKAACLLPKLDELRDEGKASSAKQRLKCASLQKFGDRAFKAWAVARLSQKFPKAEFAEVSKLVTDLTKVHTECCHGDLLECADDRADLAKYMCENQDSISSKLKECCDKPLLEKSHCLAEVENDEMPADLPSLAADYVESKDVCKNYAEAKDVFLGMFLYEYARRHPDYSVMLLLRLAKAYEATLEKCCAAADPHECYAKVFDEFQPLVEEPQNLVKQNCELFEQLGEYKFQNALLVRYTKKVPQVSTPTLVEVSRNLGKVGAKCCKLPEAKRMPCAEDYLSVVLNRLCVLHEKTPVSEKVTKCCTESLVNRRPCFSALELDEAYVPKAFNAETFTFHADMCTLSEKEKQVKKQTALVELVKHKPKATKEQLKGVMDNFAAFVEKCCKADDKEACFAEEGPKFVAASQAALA

PMP6A6 (ALB1) (VHH) gave a factor of difference in affinity for human/rhesus versus mouse serum albumin in experiment [1] of 12 fold. In experiment [2], this substance had a pKd of 9.24, a koff of 0.00063 s⁻¹ and a kon of 1.11e+06 M⁻¹ s⁻¹. In experiment [3], this substance gave a pKd of 8.19, a koff of 0.00725 s⁻¹ and a kon of 1.11e+06 M⁻¹ s⁻¹. Further, in experiment [4], the pKd is 9.28, the dissociation rate constant (koff) was 0.000546 s⁻¹ and the kon turned out to be 1.05e+06 M⁻¹ s⁻¹.
